The values that follow come from patent US20240010748A1.

The target in the experiment is murine Claudin 18.2 (mCLDN18.2) on stably-transfected HEK293 cells (murine) (UniProt P56857). The experiment can be described thus: FACS on HEK293-mCLDN18.2 cells.

B1: h160C9AA (antibody, human IgG1, lambda, L234A L235A, V domains shown)
VH: EVKLVESGGGLVQPGGSLKLSCAASGFTFNTYAMNWVRQAPGKGLEWVARIRSKYNNYATYYADSVKDRFTISRDDAKNTLYLQMNNLRTEDTAVYYCVRHGNFGNSYVSWFAYWGQGTLVTVSS
VL: QAVVTQEPSLTVSPGGTVTLTCRSSTGAVTTSNYANWVQQKPGQAPRGLIGGTNKRAPGTPARFSGSLLGGKAALTLSGAQPEDEAEYYCALWYSNLWVFGGGTKLTVLG
In turn, B1 yielded an MFI (Max) of 543 MFI.
